The experiment concerns the target medin D25N, recombinant (human). The experiment is described as follows: thioflavin T fluorescence (aggregation kinetics); 20 uM medin, 20 uM ThT, 30 C, no agitation, 96-well plate, triplicate; 20 mM sodium phosphate, 150 mM NaCl, pH 7.4; sigmoidal fit, slope 1/tau is the rate of polymerization; self-assembly into ThT-responsive aggregates.

For the substance medin D25N, recombinant (peptide), the rate of polymerization (ThT fit) stood at 1.43 h⁻¹.
